# Measurements as given in patent US20150297680A1.
# Target: human serum albumin (HSA) (human) (UniProt P02768)
# Test: HSA-coupled agarose beads, washed with PBS, fluorescence plate reader (ex 480 nm, em 510 nm)
# Sequence of UniProt P02768 (P02768 25-609 limits assumed): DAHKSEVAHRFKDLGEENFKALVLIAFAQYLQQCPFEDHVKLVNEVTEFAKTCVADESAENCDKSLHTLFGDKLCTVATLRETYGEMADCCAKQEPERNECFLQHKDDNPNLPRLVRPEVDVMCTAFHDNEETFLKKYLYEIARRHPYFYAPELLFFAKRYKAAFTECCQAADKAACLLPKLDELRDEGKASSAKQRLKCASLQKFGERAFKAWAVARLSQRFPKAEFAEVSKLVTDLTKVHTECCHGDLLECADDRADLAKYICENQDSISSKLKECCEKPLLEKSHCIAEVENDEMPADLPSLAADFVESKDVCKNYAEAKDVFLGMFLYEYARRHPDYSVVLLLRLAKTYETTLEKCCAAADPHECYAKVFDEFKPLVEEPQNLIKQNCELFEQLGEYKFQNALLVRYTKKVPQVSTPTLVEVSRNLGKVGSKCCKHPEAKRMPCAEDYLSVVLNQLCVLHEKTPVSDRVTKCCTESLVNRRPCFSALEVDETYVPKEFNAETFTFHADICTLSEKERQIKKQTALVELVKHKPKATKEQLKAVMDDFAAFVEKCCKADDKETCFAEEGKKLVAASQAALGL
substance,measurement,value
palmitic acid-conjugated superfolder green fluorescent protein (sfGFP-Pal),fold fluorescence of HSA-coupled beads against those with sfGFP-WT,20 fold
